This is an account of results in paper PMC12286842.

The target in this assay is Flag–UBR4 (UBR4 tagged at its endogenous locus) (human (endogenous in HEK293T)) (UniProt Q5T4S7). The assay is described as follows: cryo-EM structure; endogenous SIFI immunoprecipitated through tagged UBR4 from HEK293T and run on Superose 6 SEC; the complex formed in cells and was co-purified; single-particle cryo-EM, AF2 models fitted in low-resolution regions.

Flag–UBR4 (UBR4 tagged at its endogenous locus), Q5T4S7-1 1-5183 (enzyme), sequence (Q5T4S7 whole entry): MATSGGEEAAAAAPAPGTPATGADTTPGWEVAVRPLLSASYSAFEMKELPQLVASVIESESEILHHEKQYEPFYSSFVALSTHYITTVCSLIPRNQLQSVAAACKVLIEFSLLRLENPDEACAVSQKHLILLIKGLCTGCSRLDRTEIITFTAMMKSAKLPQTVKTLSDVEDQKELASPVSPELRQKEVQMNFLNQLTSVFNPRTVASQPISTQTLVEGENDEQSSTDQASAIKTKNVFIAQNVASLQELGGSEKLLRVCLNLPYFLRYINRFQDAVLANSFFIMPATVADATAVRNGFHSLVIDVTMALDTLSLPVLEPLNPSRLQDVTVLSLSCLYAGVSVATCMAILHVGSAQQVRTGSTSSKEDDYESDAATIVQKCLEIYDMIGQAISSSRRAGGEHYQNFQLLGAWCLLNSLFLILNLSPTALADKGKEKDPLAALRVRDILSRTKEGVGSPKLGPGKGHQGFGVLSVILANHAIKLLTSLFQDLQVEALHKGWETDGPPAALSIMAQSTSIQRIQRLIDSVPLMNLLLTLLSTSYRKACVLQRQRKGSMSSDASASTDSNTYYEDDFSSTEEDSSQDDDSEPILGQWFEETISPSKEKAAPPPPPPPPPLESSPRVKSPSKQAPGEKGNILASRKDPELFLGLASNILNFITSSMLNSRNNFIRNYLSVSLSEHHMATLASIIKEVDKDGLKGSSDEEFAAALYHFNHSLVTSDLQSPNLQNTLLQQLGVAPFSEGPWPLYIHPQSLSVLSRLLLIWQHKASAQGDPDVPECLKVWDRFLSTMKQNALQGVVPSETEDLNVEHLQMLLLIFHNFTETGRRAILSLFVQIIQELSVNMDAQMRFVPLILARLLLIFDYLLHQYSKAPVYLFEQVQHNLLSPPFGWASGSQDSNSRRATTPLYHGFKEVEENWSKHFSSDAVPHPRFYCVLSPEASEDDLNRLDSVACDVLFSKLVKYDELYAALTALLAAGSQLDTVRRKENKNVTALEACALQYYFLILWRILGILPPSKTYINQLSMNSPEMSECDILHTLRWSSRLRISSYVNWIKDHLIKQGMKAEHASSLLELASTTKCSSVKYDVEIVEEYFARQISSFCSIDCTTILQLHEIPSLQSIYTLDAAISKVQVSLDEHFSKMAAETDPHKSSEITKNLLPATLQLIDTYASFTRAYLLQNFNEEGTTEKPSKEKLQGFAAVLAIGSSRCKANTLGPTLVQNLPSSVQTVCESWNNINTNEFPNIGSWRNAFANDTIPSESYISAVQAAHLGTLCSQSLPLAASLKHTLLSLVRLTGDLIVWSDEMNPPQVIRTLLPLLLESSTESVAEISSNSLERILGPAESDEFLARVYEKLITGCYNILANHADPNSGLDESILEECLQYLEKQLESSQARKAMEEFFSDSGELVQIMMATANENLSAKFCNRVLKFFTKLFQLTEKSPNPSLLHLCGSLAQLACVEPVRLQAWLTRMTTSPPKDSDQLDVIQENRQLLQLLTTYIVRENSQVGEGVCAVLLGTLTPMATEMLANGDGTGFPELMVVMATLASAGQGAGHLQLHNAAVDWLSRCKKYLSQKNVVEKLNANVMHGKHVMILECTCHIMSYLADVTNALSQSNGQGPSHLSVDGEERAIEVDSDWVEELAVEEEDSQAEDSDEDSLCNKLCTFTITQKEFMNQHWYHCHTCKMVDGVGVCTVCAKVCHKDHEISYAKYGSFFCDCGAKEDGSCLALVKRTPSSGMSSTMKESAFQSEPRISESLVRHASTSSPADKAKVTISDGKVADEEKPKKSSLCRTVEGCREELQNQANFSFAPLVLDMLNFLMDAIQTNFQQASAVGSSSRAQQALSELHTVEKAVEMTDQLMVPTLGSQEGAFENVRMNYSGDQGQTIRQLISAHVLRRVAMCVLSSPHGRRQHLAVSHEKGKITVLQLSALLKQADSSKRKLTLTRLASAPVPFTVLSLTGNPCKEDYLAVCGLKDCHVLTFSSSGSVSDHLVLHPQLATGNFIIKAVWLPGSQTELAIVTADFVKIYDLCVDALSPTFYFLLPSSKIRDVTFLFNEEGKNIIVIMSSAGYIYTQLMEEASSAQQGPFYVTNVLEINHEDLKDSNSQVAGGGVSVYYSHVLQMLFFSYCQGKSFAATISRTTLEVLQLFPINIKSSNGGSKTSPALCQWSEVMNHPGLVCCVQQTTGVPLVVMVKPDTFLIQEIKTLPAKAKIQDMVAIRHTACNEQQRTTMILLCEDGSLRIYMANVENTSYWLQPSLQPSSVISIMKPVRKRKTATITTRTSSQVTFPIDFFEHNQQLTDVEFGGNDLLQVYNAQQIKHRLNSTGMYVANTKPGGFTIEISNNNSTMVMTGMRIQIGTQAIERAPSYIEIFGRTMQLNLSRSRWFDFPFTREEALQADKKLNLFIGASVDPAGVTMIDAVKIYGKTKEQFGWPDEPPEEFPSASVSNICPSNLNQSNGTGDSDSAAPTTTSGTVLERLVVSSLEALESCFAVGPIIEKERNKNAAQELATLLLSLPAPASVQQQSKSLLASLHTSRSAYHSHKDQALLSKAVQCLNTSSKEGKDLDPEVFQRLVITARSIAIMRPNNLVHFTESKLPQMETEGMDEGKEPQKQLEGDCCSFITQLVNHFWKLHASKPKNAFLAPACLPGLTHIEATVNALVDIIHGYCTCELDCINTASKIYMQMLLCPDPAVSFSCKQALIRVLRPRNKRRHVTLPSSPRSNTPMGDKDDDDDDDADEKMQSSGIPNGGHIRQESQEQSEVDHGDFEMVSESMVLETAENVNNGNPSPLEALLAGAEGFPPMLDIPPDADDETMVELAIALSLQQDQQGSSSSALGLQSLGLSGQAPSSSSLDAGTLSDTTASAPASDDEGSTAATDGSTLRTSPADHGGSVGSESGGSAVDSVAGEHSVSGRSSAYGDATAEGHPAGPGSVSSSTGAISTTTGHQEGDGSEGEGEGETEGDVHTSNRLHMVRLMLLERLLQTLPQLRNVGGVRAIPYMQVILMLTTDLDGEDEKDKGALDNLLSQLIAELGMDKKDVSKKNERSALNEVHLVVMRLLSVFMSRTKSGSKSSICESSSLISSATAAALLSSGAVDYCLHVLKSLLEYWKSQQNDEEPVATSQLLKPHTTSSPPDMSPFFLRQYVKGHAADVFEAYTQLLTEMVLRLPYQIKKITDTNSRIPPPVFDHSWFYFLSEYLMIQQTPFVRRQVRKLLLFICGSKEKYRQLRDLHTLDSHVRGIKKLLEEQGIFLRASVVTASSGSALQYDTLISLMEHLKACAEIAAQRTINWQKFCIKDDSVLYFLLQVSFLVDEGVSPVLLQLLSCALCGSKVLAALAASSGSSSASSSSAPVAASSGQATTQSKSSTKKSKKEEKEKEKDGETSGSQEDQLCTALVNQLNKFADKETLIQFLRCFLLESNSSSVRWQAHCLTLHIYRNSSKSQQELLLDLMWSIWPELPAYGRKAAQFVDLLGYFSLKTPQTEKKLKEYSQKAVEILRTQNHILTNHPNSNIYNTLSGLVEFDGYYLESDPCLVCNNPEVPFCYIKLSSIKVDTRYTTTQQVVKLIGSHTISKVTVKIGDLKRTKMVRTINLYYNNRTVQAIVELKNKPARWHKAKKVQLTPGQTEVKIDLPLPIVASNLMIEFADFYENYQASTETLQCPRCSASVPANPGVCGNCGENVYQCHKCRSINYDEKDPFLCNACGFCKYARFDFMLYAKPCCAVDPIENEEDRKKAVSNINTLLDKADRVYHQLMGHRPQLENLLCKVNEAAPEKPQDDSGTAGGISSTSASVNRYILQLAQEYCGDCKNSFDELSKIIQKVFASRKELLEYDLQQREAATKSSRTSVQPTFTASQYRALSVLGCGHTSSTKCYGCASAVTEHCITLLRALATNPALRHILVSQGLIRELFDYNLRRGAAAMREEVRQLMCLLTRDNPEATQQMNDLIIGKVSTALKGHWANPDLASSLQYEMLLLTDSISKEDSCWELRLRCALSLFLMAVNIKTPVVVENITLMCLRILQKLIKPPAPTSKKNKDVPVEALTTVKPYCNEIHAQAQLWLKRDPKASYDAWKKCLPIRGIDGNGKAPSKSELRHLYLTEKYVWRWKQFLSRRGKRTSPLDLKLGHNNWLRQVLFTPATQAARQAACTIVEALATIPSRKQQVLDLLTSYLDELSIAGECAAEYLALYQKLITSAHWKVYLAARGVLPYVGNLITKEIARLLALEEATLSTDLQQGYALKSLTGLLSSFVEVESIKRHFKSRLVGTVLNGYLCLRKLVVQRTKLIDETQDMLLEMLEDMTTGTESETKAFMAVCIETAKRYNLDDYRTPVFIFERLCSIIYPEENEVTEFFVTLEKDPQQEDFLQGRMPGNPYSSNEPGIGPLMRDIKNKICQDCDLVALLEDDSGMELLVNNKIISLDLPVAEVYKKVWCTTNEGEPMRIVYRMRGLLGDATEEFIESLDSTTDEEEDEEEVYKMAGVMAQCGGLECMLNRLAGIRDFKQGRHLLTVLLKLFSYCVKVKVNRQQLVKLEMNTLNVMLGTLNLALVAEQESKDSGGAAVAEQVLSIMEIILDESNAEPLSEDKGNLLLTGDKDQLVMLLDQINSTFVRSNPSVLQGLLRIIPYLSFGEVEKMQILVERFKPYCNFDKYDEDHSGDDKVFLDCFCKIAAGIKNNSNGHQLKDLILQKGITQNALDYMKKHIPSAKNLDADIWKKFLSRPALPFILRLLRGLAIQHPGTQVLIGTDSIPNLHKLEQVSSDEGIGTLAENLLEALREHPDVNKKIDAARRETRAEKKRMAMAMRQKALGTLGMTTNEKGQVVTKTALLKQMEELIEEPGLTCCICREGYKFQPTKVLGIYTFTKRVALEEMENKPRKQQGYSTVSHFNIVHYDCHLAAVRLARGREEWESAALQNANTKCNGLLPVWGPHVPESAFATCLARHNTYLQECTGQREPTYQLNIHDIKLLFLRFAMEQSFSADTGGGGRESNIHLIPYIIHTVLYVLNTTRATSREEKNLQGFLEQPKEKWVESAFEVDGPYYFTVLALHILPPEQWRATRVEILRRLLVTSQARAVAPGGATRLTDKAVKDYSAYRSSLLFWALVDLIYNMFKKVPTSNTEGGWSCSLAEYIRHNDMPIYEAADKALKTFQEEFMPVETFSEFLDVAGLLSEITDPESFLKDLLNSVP

In the case of “Flag–UBR4 (UBR4 tagged at its endogenous locus), Q5T4S7-1 1-5183 (enzyme)”, the stoichiometry N turned out to be 2.

The term stoichiometry N denotes a count of units in the complex or per binding partner.
